Experimental data from patent US20220251166A1 (Chugai, published 2022).

Target: human CD3 on Jurkat luciferase reporter T cells (human)
Experiment: cell-based or functional assay

| Binder | relative luciferase activity (fold, maximum), Jurkat luciferase reporter T cells co-cultured with dead (MTX treated) Ba/F3 cells | relative luciferase signal (fold induction), Jurkat luciferase reporter T cells co-cultured with live (untreated) Ba/F3 cells | further results |
| --- | --- | --- | --- |
| TR01H113-mF18/TR01L0011-mk1 (anti-CD3) (antibody, mouse IgG1, kappa) heavy: QVQLVESGGGVVQPGGSLRLSCAASGFTFSNAWMHWVRQAPGKGLEWVAQIKDKSQNYATYVAESVKGRFTISRADSKNSIYLQMNSLKTEDTAVYYCRYVHYAAGYGVDIWGQGTTVTVSSAKTTPPSVYPLAPGSAAQTNSMVTLGCLVKGYFPEPVTVTWNSGSLSSGVHTFPAVLQSDLYTLSSSVTVPSSTWPSETVTCNVAHPASSTKVDKKIVPRDCGCKPCICTVKEVSKVFIFPPKPKDVLTITLTPKVTCVVVDISKDDPEVQFSWFVDDVEVHTAQTQPREEQFNSTFRSVSELPIMHQDWLNGKEFKCRVNSAAFPAPIEKTISKTKGRPKAPQVYTIPPPKEQMAKDKVSLTCMITDFFPEDITVEWQWNGQPAENYKNTQPIMDTDGSYFVYSKLNVQKSNWEAGNTFTCSVLHEGLHNHHTEKSLSHSPGK light: DIVMTQSPLSLPVTPGEPASISCRSSQPLVHSNRNTYLHWYQQKPGQAPRLLIYKVSNRFSGVPDRFSGSGSGTDFTLKISRVEAEDVGVYYCGQGTQVPYTFGQGTKLEIKRADAAPTVSIFPPSSEQLTSGGASVVCFLNNFYPKDINVKWKIDGSERQNGVLNSWTDQDSKDSTYSMSSTLTLTKDEYERHNSYTCEATHKTSTSPIVKSFNRNEC |  |  | relative fold induction of luciferase, Jurkat luciferase reporter T cells co-cultured with dead (MTX treated) Ba/F3 cells: ~20 fold; relative luciferase signal (fold induction, maximum), Jurkat luciferase reporter T cells co-cultured with live (untreated) Ba/F3 cells: ~22 fold |
| TR01H113-mF18.G3S2.mC9ECD57/TR01L0011-mk1 (anti-CD3-Clec9A ECD) (antibody, mouse IgG1, kappa) heavy: QVQLVESGGGVVQPGGSLRLSCAASGFTFSNAWMHWVRQAPGKGLEWVAQIKDKSQNYATYVAESVKGRFTISRADSKNSIYLQMNSLKTEDTAVYYCRYVHYAAGYGVDIWGQGTTVTVSSAKTTPPSVYPLAPGSAAQTNSMVTLGCLVKGYFPEPVTVTWNSGSLSSGVHTFPAVLQSDLYTLSSSVTVPSSTWPSETVTCNVAHPASSTKVDKKIVPRDCGCKPCICTVKEVSKVFIFPPKPKDVLTITLTPKVTCVVVDISKDDPEVQFSWFVDDVEVHTAQTQPREEQFNSTFRSVSELPIMHQDWLNGKEFKCRVNSAAFPAPIEKTISKTKGRPKAPQVYTIPPPKEQMAKDKVSLTCMITDFFPEDITVEWQWNGQPAENYKNTQPIMDTDGSYFVYSKLNVQKSNWEAGNTFTCSVLHEGLHNHHTEKSLSHSPGKGGGSGGGSKFFQVSSLVLEQQERLIQQDTALVNLTQWQRKYTLEYCQALLQRSLHSGTDASTGPVLLTSPQMVPQTLDSKETGSDCSPCPHNWIQNGKSCYYVFERWEMWNISKKSCLKEGASLFQIDSKEEMEFISSIGKLKGGNKYWVGVFQDGISGSWFWEDGSSPLSDLLPAERQRSAGQICGYLKDSTLISDKCDSWKYFICEKKAFGSCI light: DIVMTQSPLSLPVTPGEPASISCRSSQPLVHSNRNTYLHWYQQKPGQAPRLLIYKVSNRFSGVPDRFSGSGSGTDFTLKISRVEAEDVGVYYCGQGTQVPYTFGQGTKLEIKRADAAPTVSIFPPSSEQLTSGGASVVCFLNNFYPKDINVKWKIDGSERQNGVLNSWTDQDSKDSTYSMSSTLTLTKDEYERHNSYTCEATHKTSTSPIVKSFNRNEC | ~54 fold | ~5 fold |  |
| TR01H113-mF18.G3S2.mC9.131/TR01L0011-mk1 (anti-CD3-Clec9A CTLD) (antibody, mouse IgG1, kappa) heavy: QVQLVESGGGVVQPGGSLRLSCAASGFTFSNAWMHWVRQAPGKGLEWVAQIKDKSQNYATYVAESVKGRFTISRADSKNSIYLQMNSLKTEDTAVYYCRYVHYAAGYGVDIWGQGTTVTVSSAKTTPPSVYPLAPGSAAQTNSMVTLGCLVKGYFPEPVTVTWNSGSLSSGVHTFPAVLQSDLYTLSSSVTVPSSTWPSETVTCNVAHPASSTKVDKKIVPRDCGCKPCICTVKEVSKVFIFPPKPKDVLTITLTPKVTCVVVDISKDDPEVQFSWFVDDVEVHTAQTQPREEQFNSTFRSVSELPIMHQDWLNGKEFKCRVNSAAFPAPIEKTISKTKGRPKAPQVYTIPPPKEQMAKDKVSLTCMITDFFPEDITVEWQWNGQPAENYKNTQPIMDTDGSYFVYSKLNVQKSNWEAGNTFTCSVLHEGLHNHHTEKSLSHSPGKGGGSGGGSGSDCSPCPHNWIQNGKSCYYVFERWEMWNISKKSCLKEGASLFQIDSKEEMEFISSIGKLKGGNKYWVGVFQDGISGSWFWEDGSSPLSDLLPAERQRSAGQICGYLKDSTLISDKCDSWKYFICEKKAFGSCI light: DIVMTQSPLSLPVTPGEPASISCRSSQPLVHSNRNTYLHWYQQKPGQAPRLLIYKVSNRFSGVPDRFSGSGSGTDFTLKISRVEAEDVGVYYCGQGTQVPYTFGQGTKLEIKRADAAPTVSIFPPSSEQLTSGGASVVCFLNNFYPKDINVKWKIDGSERQNGVLNSWTDQDSKDSTYSMSSTLTLTKDEYERHNSYTCEATHKTSTSPIVKSFNRNEC | ~46 fold | ~5 fold |  |
| TX_3G4VH-mBS1001b/3G4VL-mk1//TR01H113-mBS1001a/TR01L0011-mk1 (anti-PS(3G4)//CD3) (bispecific antibody, mouse IgG1, kappa) heavy 1: EVQLQQSGPELEKPGASVKLSCKASGYSFTGYNMNWVKQSHGKSLEWIGHIDPYYGDTSYNQKFRGKATLTVDKSSSTAYMQLKSLTSEDSAVYYCVKGGYYGHWYFDVWGAGTTVTVSSAKTTPPSVYPLAPGSAAQTNSMVTLGCLVKGYFPEPVTVTWNSGSLSSGVHTFPAVLQSDLYTLSSSVTVPSSTWPSETVTCNVAHPASSTKVDKKIVPRDCGCKPCICTVKEVSKVFIFPPKPKDVLTITLTPKVTCVVVDISKDDPEVQFSWFVDDVEVHTAQTQPREEQFNSTFRSVSELPIMHQDWLNGKEFKCRVNSAAFPAPIEKTISKTKGRPKAPQVYTIPPPKEQMAKDKVSLTCMITDFFPEDITVEWQWNGQPAENYKNTQPIMRTDGSYFVYSKLNVQKSNWEAGNTFTCSVLHEGLHNHHTEKSLSHSPGK light 1: DIQMTQSPSSLSASLGERVSLTCRASQDIGSSLNWLQQGPDGTIKRLIYATSSLDSGVPKRFSGSRSGSDYSLTISSLESEDFVDYYCLQYVSSPPTFGAGTKLELKRADAAPTVSIFPPSSEQLTSGGASVVCFLNNFYPKDINVKWKIDGSERQNGVLNSWTDQDSKDSTYSMSSTLTLTKDEYERHNSYTCEATHKTSTSPIVKSFNRNEC heavy 2: QVQLVESGGGVVQPGGSLRLSCAASGFTFSNAWMHWVRQAPGKGLEWVAQIKDKSQNYATYVAESVKGRFTISRADSKNSIYLQMNSLKTEDTAVYYCRYVHYAAGYGVDIWGQGTTVTVSSAKTTPPSVYPLAPGSAAQTNSMVTLGCLVKGYFPEPVTVTWNSGSLSSGVHTFPAVLQSDLYTLSSSVTVPSSTWPSETVTCNVAHPASSTKVDKKIVPRDCGCKPCICTVKEVSKVFIFPPKPKDVLTITLTPKVTCVVVDISKDDPEVQFSWFVDDVEVHTAQTQPREEQFNSTFRSVSELPIMHQDWLNGKEFKCRVNSAAFPAPIEKTISKTKGRPKAPQVYTIPPPKEQMAKDKVSLTCMITDFFPEDITVEWQWNGQPAENYKNTQPIMDTDGSYFVYSELNVQKSNWEAGNTFTCSVLHEGLHNHHTEKSLSHSPGK light 2: DIVMTQSPLSLPVTPGEPASISCRSSQPLVHSNRNTYLHWYQQKPGQAPRLLIYKVSNRFSGVPDRFSGSGSGTDFTLKISRVEAEDVGVYYCGQGTQVPYTFGQGTKLEIKRADAAPTVSIFPPSSEQLTSGGASVVCFLNNFYPKDINVKWKIDGSERQNGVLNSWTDQDSKDSTYSMSSTLTLTKDEYERHNSYTCEATHKTSTSPIVKSFNRNEC |  |  | luciferase signal (fold induction) at 5 nM antibody, Jurkat reporter T cells co-cultured with dead Ba/F3 cells: 16 fold; luciferase signal (fold induction) at 25 nM antibody, Jurkat reporter T cells co-cultured with dead Ba/F3 cells: 70 fold |
